The record followed here is US20140234213A1 (FOX CHASE CANCER CENTER, published 2014).

For this experiment, the target named is T1, human Mullerian inhibiting substance Type II receptor (MISIIR) (human, UniProt Q16671 18-573).
T1 construct: whole, on cells; also called MIS type II receptor; AMHR2
T1 sequence (looked up): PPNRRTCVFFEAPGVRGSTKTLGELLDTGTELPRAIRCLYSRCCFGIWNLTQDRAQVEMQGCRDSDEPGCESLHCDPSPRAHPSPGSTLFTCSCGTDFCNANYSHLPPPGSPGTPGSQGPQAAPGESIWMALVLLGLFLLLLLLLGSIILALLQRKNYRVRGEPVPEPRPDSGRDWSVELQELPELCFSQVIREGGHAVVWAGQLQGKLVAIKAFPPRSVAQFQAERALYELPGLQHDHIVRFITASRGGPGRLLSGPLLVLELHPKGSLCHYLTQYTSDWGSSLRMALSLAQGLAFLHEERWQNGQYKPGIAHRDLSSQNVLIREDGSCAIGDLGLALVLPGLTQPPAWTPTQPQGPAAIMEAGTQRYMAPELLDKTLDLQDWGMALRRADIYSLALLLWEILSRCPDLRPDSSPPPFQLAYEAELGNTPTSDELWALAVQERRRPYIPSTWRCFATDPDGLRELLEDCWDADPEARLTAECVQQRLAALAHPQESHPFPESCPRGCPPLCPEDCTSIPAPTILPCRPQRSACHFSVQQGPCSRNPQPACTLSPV
The experiment can be described thus: inferred by the filing from the reporter gene assay (block of MIS-induced signaling); no direct binding assay. As for the experimental part:
FIG. 3 provides a schematic of a reporter gene assay to measure MISIIR signaling. The Tlx-2 (T-cell leukemia, homeobox 2) gene is a downstream target of BMP and MIS signaling (Tang et al. (1998) Development 125:1877-1887). Genes encoding mouse TLX2-luciferase and human MISIIR were stably transfected into P19 mouse neuroblastoma cells that normally lack MISIIR.
The ability of the new hybrid scFv molecules to block MIS binding to MISIIR was determined using a reporter gene assay in which signaling through MISIIR on the surface of […] cells triggers luminescence in the cells (FIG. 3). MIS was added to the cells in the presence or absence of the different scFv molecules and the resulting luminescence was measured (FIG. 4).

B1: RAD-1-0003 (E3 1DQH3) scFv (scFv)
scFv: MAQVQLQQSGPGLVKPSQTLSLTCAISGDSVSSKSATWNWIRQSPSRGLEWLGRTYYRSKWYNDYAESVKSRITIKPDTTKNHFSLQLKSVTPEDTAVYYCASPPGGKLLISLSEERISAHHVPMDYWGQGTLVTVSSSASGAELGGGGSGGGGSGGGGSTSQAVLTQPSSASGTPGQRVTISCSGSSSNIGAGYDVHWYQQLPGTAPKLLIYGNSNRPSGVPDRFSGSKSGTSASLAITGLQAEDEADYYCQSYDSSLSAHNYVFGTGTKVTLLG
notes: Hybrid scFv on the E3 framework with the MIS loop in the heavy chain CDR3, in a different orientation than RAD-1-0001
For B1, the binding result is “binds”.
